This passage reports Kd, koff and kon results from article PMC4552014, “High Affinity Binders to EphA2 Isolated from Abdurin Scaffold Libraries; Characterization, Binding and Tumor Targeting” (PLoS ONE, 2015).

One experiment addresses human FcRn (human) (UniProt P55899). The experiment in a line: SPR; Biacore 3000, on hFcRn; who was immobilised and the conditions not given. Background: SPR reads the build-up and loss of mass on a sensor chip optically.
Experiment [1] deals with T1, hEphA2 on CHOK1-EphA2 cells (human, UniProt P29317 24-976).
T1 construct: EphA2, human, transfection-ready hEphA2 cDNA (OriGene Technologies); also called cell-surface expressed hEphA2; source: CHOK1 cells transfected with hEphA2 cDNA (OriGene Technologies), single cell clone, on cells
T1 sequence (P29317 24-976): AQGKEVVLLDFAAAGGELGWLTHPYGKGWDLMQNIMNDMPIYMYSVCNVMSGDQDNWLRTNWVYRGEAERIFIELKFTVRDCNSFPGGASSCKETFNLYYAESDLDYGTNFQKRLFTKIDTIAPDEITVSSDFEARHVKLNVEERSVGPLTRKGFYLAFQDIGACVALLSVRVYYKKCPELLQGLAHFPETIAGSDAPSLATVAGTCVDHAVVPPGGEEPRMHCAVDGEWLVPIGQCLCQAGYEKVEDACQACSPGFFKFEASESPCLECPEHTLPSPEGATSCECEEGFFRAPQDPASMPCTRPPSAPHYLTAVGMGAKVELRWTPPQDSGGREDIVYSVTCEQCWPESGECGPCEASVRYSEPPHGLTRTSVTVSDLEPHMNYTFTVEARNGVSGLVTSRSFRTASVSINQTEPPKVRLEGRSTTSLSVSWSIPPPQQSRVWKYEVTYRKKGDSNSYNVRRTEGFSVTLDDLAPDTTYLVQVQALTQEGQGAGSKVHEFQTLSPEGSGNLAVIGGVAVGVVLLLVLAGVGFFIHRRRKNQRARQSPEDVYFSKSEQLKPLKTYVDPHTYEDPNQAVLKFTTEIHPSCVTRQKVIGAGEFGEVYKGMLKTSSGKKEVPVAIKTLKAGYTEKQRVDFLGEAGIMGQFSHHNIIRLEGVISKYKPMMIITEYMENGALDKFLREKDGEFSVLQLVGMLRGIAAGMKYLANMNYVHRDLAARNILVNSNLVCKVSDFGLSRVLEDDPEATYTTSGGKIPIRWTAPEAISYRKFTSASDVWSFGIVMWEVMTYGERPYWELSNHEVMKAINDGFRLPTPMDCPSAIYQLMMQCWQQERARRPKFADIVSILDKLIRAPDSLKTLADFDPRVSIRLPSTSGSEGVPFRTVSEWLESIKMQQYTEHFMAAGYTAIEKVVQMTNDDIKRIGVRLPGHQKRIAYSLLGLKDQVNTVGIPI
The experiment is described as follows: flow cytometry on cells; Abdurins at 1nM to 7μM incubated with CHOK1-EphA2 cells; detected with mouse anti-HisTag-FITC; the constant is printed as 'Affinity (M)'. The following applies: one partner purified. (In flow cytometry, cells or beads pass a laser one at a time.)

Experiment [2] concerns the target T2, murine EphA2-Fc fusion protein (mouse, UniProt Q03145 26-538).
T2 construct: ephrin receptor tyrosine kinase class A2 (EphA2), mouse, extracellular domain as Fc chimera; Biotinylated in-house (EZ-Link Sulfo-NHS-LC-Biotin) for the CIS display selections and the screening ELISA; also called mEphA2-Fc; mEphA2; source: bought: R&D Systems
The experiment in a line: ELISA; end-point titration ELISA in 96-well plates coated with hEphA2-Fc or mEphA2-Fc; purified Abdurins titrated; detected by anti-FLAG M2-HRP; the constant is printed as 'Affinity (M)'. To be noted: both partners purified. On the technique in general: An ELISA detects its analyte on a solid surface through an enzyme-linked reagent.

The next experiment addresses T3, hEphA2-Fc (human, UniProt P29317 24-537).
T3 construct: EphA2, human, as Fc fusion coated on 96-well plates; Probably the extracellular domain; also called huEphA2
Described as above. To be noted: both partners purified.

Experiment [3] deals with human EphA2 recombinant protein (human, UniProt P29317 24-976, Construct limits are not given; the soluble recombinant receptor is taken as the mature extracellular domain from the UniProt features. The Fig 3 legend names an Fc fusion (hEphA2-Fc), and the Fc is). The experiment is described as follows: SPR; Biacore 3000; hEphA2 immobilised on CM5 chip by amine coupling (500 RU); Abdurins as analyte, multi-cycle kinetics in HBS-P (50 mM Hepes pH 7.4, 150 mM NaCl, 0.005% P-20), 40 μl/minute; 1:1 binding model; repeated three times. To be noted: both partners purified.
human EphA2 recombinant protein, sequence (P29317 24-976): as above

In experiment [4] the target is T2, murine EphA2-Fc fusion protein. The experiment is described as follows: SPR; Biacore 3000, on mEphA2; purified Abdurins from E. coli; immobilisation for mEphA2 not described. The following applies: both partners purified.

T3 sequence (P29317 24-537): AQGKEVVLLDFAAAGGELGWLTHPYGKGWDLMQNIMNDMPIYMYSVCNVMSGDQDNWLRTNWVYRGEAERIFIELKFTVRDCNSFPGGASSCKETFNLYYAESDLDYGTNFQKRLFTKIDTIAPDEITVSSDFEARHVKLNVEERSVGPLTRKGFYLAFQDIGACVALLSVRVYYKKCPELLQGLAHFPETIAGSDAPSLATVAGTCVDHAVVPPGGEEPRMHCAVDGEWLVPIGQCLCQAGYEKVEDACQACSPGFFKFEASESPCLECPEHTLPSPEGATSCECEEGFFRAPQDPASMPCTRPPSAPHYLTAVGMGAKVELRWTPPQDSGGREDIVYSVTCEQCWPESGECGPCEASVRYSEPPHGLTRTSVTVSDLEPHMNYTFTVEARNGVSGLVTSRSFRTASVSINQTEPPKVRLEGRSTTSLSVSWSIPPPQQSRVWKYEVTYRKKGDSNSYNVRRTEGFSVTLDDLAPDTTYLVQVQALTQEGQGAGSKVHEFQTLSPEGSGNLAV
T2 sequence (Q03145 26-538): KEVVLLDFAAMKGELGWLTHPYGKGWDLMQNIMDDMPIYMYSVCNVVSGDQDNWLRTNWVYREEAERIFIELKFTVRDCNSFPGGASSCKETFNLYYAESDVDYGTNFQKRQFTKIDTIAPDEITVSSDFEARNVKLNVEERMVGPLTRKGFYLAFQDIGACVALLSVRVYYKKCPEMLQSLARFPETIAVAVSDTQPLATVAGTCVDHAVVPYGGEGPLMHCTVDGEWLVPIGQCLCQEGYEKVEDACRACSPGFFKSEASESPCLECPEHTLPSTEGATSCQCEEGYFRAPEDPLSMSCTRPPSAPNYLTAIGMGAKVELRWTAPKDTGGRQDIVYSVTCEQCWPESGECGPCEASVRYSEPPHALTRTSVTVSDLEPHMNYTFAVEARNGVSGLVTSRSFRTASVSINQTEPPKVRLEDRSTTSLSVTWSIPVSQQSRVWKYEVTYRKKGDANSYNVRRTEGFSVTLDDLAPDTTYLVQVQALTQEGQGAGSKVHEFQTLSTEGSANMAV

As for “shWTCH2 (version of the wild-type CH2 domain that has the N-terminal seven amino acids truncated) (domain or fragment)”, in the experiment with human FcRn (human), the Kd (usually the free concentration of one partner at which half of the binding sites on the other are occupied at equilibrium, for simple one-to-one binding) was 25 nM; the koff (in general, the rate constant with which the complex falls apart) was 0.017 s⁻¹; the on-rate constant (kon) – broadly, the second-order rate constant of association – is 1.5e+06 M⁻¹ s⁻¹.

B1: Abdurin B11, affinity matured EphA2 binder (designed binder)
chain: GPSVFLFPPKPKDTLMISRTPEVTCVVVDYRADYLEVKFNWYVDGVEVHNAKTKPRQYDPLYGYRVVSVLTVLHQDWLNGKEYKCKVSNKALPAPIEKTISKAK
notes: Abdurin scaffold (human IgG1 CH2 domain), stretch before loop BC; loop BC of matured clone B11, in place of Val266-Pro271 (VSHEDP) of the scaffold; Abdurin scaffold (human IgG1 CH2 domain), stretch between loops BC and DE; loop DE from the parental clone E10, in place of Glu293-Thr299 (EEQYNST); Abdurin scaffold (human IgG1 CH2 domain), stretch after loop DE; Not the phage loop DE clone of the …
Regarding B1, the dissociation constant (Kd) in experiment [1] was 403 nM; in experiment [2], 9.89 nM; with hEphA2-Fc, 4.43 nM; with human FcRn (human) it was 26 nM. Also, the koff was determined as 0.0158 s⁻¹ in experiment [3] and 0.013 s⁻¹ with human FcRn (human). The kon is 1.21e+06 M⁻¹ s⁻¹ in experiment [3] and 1.1e+06 M⁻¹ s⁻¹ in the experiment with human FcRn (human).

B2: Abdurin D2, affinity matured EphA2 binder (designed binder)
chain: GPSVFLFPPKPKDTLMISRTPEVTCVVVDYEAAALEVKFNWYVDGVEVHNAKTKPRQYDPLYGYRVVSVLTVLHQDWLNGKEYKCKVSNKALPAPIEKTISKAK
notes: Abdurin scaffold (human IgG1 CH2 domain), stretch before loop BC; loop BC of matured clone D2, in place of Val266-Pro271 (VSHEDP) of the scaffold; Abdurin scaffold (human IgG1 CH2 domain), stretch between loops BC and DE; loop DE from the parental clone E10, in place of Glu293-Thr299 (EEQYNST); Abdurin scaffold (human IgG1 CH2 domain), stretch after loop DE; Not the phage loop DE clone of the …
As to B2, the values for the Kd (in experiment [1]; in experiment [2]; with hEphA2-Fc) were 1310 nM, 1.97 nM and 2.55 nM, respectively.

B3: Abdurin G7, affinity matured EphA2 binder (designed binder)
chain: GPSVFLFPPKPKDTLMISRTPEVTCVVVDPHLGVDEVKFNWYVDGVEVHNAKTKPRQYDPLYGYRVVSVLTVLHQDWLNGKEYKCKVSNKALPAPIEKTISKAK
notes: Abdurin scaffold (human IgG1 CH2 domain), stretch before loop BC; loop BC of matured clone G7, in place of Val266-Pro271 (VSHEDP) of the scaffold; Abdurin scaffold (human IgG1 CH2 domain), stretch between loops BC and DE; loop DE from the parental clone E10, in place of Glu293-Thr299 (EEQYNST); Abdurin scaffold (human IgG1 CH2 domain), stretch after loop DE; source: E. coli Shuffle cells, …
Take B3: the Kd in experiment [1] was 333 nM; in experiment [2], 3.18 nM; with hEphA2-Fc it was 8.06 nM. Also, the dissociation rate constant (koff) in experiment [3] came out at 0.0375 s⁻¹. For the same molecule, the on-rate (kon) in experiment [3] came out at 1.8e+06 M⁻¹ s⁻¹.

B4: Abdurin B6, affinity matured EphA2 binder (designed binder)
chain: GPSVFLFPPKPKDTLMISRTPEVTCVVVDPYLHDDEVKFNWYVDGVEVHNAKTKPRQYDPLYGYRVVSVLTVLHQDWLNGKEYKCKVSNKALPAPIEKTISKAK
notes: Abdurin scaffold (human IgG1 CH2 domain), stretch before loop BC; loop BC of matured clone B6, in place of Val266-Pro271 (VSHEDP) of the scaffold; Abdurin scaffold (human IgG1 CH2 domain), stretch between loops BC and DE; loop DE from the parental clone E10, in place of Glu293-Thr299 (EEQYNST); Abdurin scaffold (human IgG1 CH2 domain), stretch after loop DE; source: E. coli Shuffle cells, …
As to B4, the Kd in experiment [1] turned out to be 151 nM; in experiment [2] it was 3.5 nM; with hEphA2-Fc, 6.54 nM; with human FcRn (human), 38 nM. The koff in experiment [3] was determined as 0.0496 s⁻¹; with human FcRn (human) it was 0.011 s⁻¹. For the same molecule, the kon came out at 716000 M⁻¹ s⁻¹ in experiment [3] and 1.1e+06 M⁻¹ s⁻¹ with human FcRn (human).

B5: Abdurin H6, purified loop DE binder (designed binder)
chain: GPSVFLFPPKPKDTLMISRTPEVTCVVVDVSHEDPEVKFNWYVDGVEVHNAKTKPRRVDPLGGYRVVSVLTVLHQDWLNGKEYKCKVSNKALPAPIEKTISKAK
notes: Abdurin scaffold (human IgG1 CH2 domain), stretch before loop DE; loop DE of clone H6, in place of Glu293-Thr299 (EEQYNST) of the scaffold; Abdurin scaffold (human IgG1 CH2 domain), stretch after loop DE
For B5, in experiment [4], the Kd came to 873 nM, the koff amounted to 0.008 s⁻¹ and the kon was found to be 9610 M⁻¹ s⁻¹.
